Results reported in patent US11054428B2, “Inhalable nanosensors with volatile reporters and uses thereof” (Massachusetts Institute of Technology, priority 2018, dated 2021).

Key:
neutrophil elastase (NE) [1] = biological target: T1, neutrophil elastase (NE) (Mus musculus, UniProt Q3UP87); assay: Mechanistic study: NE inhibitor given before nanosensor in infected mice, breath signal; type: in vivo; conditions: 5 mg/kg intratracheal, 15 min before nanosensor, infected mice (FIG. 12)
T1 construct: from tissue; host or cells: lungs of CD-1 mice, healthy or infected with P. aeruginosa PAO1 (homogenates ex vivo, or lung in vivo)
T1 sequence (Q3UP87 27-265): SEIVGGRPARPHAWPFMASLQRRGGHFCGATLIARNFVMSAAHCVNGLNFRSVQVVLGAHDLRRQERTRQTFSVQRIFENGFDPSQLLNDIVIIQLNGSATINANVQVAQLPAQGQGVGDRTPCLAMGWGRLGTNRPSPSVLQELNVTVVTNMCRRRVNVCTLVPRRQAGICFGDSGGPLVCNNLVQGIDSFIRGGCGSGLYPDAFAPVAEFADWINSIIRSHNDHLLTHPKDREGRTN

[2] = biological target: T2, lung homogenates (neutrophil elastase) (Mus musculus, UniProt Q3UP87); assay: Ex vivo reporter release from nanosensors mixed with infected and healthy lung homogenates; set-up: species or system CD-1 mice; conditions: 24 h post-inoculation with P. aeruginosa PAO1 (FIG. 3C)
T2 construct: from tissue; host or cells: lungs of CD-1 mice, healthy or infected with P. aeruginosa PAO1 (homogenates ex vivo, or lung in vivo)
T2 sequence (Q3UP87 27-265): T1 sequence (Q3UP87 27-265)
Protocol: Ultimately, the goal was to administer nanosensors into the lungs of mouse models of bacterial pneumonia to test for measurable reporter levels in the breath. Prior to direct administration into animal infection models, nanosensors were mixed ex vivo with infected and healthy lung homogenates. Bacterial pneumonia was established in CD-1 mice by intratracheal injection of 1.5×10^6 cfu Pseudomonas aeruginosa strain PAO1 (FIG. 3A). At 24 h post-inoculation, the time at which mice were euthanized and lung homogenates were prepared, infected lung homogenates had ˜22-fold greater neutrophil elastase concentration than healthy lung homogenates (FIG. 3B and FIG. 7). […] When mixed with nanosensors, infected lung homogenates triggered 5-fold faster reporter release compared to healthy lung homogenates (FIG. 3C).

neutrophil elastase (NE) [3] = biological target: T1, neutrophil elastase (NE); type: in vivo, mice
Protocol: With confirmation that infected lungs trigger greater reporter release and at detectable levels, nanosensors were then tested in acute pneumonia mouse models. […] Infected-7 and Infected-12, which have high initial reporter levels, have nanosensors predominantly in the airway. […] Reporters released from the sensor in the airways are expected to be expired in the breath more rapidly than free reporters deeper in the lung as the tidal volume is only a fraction of the total volume of the lung. […] In fact, infected breath samples at 16 min (18 min post-injection) have 3-fold higher mean reporter levels than breath samples from healthy controls (p=0.0035) (FIG. 4E and FIG. 6, right).
Therefore, subsequent studies focused on nanosensors with pentafluoropropylamine or heptafluoropropylamine reporters. […] Breath signal was reduced by ˜70% due to inhibitor administration, confirming the role of NE in releasing reporters in vivo to generate breath signal (FIG. 12).

| Compound | reduction of breath signal (neutrophil elastase (NE) [1]) [%] | reporter release rate, infected vs healthy lung homogenates [2] [fold] | breath signal, infected vs healthy mice (neutrophil elastase (NE) [3]; 10, 20 and 30 min after administration, low and high doses (FIGS. 10A-10B)) | dose dependence of breath signal (neutrophil elastase (NE) [3]; 10 vs 100 μM doses) | AUROC for identifying infected mice by breath signal (neutrophil elastase (NE) [3]; 10 min, low dose (10 μM), p=0.0062) | mean reporter levels in breath, infected vs healthy controls (neutrophil elastase (NE) [3]; 16 min timepoint (18 min post-injection), p=0.0035) [fold] | reporter levels in breath, infected vs healthy (2-way ANOVA) (neutrophil elastase (NE) [3]; 20 min breath collection, p<0.05) | duration of SNR >1.0 relative to unattached peptide substrate (neutrophil elastase (NE) [3]; FIG. 11B) [×] | reporter levels in breath, infected mice vs healthy controls after convergence (neutrophil elastase (NE) [3]; after first 14 min of breath collection (FIG. 4B)) [fold] | time to disease-distinguishing reporter signal in the breath (neutrophil elastase (NE) [3]; after inhalation) [min] | earliest time of perfect distinction between mice with and without bacterial pneumonia (neutrophil elastase (NE) [3]; after nanosensor inhalation) [min] | breath signal vs peptide substrate unattached to scaffold (neutrophil elastase (NE) [3]; infected mice (FIG. 11A)) | timepoint of maximum effect size of reporter levels (neutrophil elastase (NE) [3]; infected vs healthy (FIG. 4D)) [min] | detectability of reporter levels in breath (neutrophil elastase (NE) [3]; intratracheal instillation, 10 μM equivalent peptide dose) |
| --- | --- | --- | --- | --- | --- | --- | --- | --- | --- | --- | --- | --- | --- | --- |
| CC(C)(C)C(=O)Oc1ccc(S(=O)(=O)Nc2ccccc2C(=O)NCC(=O)O)cc1 [sivelestat] | ~70 | – | – | – | – | – | – | – | – | – | – | – | – | – |
| nanosensor: NE peptide substrate Nle(O-Bzl)-Met(O)2-Oic-Abu with C-terminal PFC reporter, conjugated via CKKK-PEG4 linker to 40 kDa 8-arm PEG; pentafluoropropylamine reporter in vivo (CKKKXXXX; not fully specified; non-natural residues) | – | 5 | significantly higher | dose-dependent | 1.0 | 3 | significantly greater | ~3 | ~3 | ≤ 20 | ≥ 12 | higher breath signal than peptide substrates | 16 | detectable |
